Laboratory results taken from IntAct's records for PubMed 19524571.

B1: Cyclin-dependent kinase 14 (Homo sapiens), O94921 (parent)
chain: MCDLIEPQPAEKIGKMKKLRRTLSESFSRIALKKDDTTFDEICVTKMSTRNCQGMDSVIKPLDTIPEDKKVRVQRTQSTFDPFEKPANQVKRVHSENNACINFKTSSTGKESPKVRRHSSPSSPTSPKFGKADSYEKLEKLGEGSYATVYKGKSKVNGKLVALKVIRLQEEEGTPFTAIREASLLKGLKHANIVLLHDIIHTKETLTLVFEYVHTDLCQYMDKHPGGLHPDNVKLFLFQLLRGLSYIHQRYILHRDLKPQNLLISDTGELKLADFGLARAKSVPSHTYSNEVVTLWYRPPDVLLGSTEYSTCLDMWGVGCIFVEMIQGVAAFPGMKDIQDQLERIFLVLGTPNEDTWPGVHSLPHFKPERFTLYSSKNLRQAWNKLSYVNHAEDLASKLLQCSPKNRLSAQAALSHEYFSDLPPRLWELTDMSSIFTVPNVRLQPEAGESMRAFGKNNSYGKSLSNSKH

Variants of: B1
Settings: with ccny_human CCNY

Variant	effect of a mutation on the interaction
K164R	decreasing interaction strength
